These results are taken from patent publication US6395531.

This series concerns MlyI restriction endonuclease (Micrococcus lylae). As to the kind of experiment: cleavage_in_vitro. To be noted: recombinant MlyI yield approximately 50,000 units per gram of cells; assay substrate not stated.

Regarding “plasmid DNA with MlyI sites (sequence not printed)”, the activity (units/g cells) came to 50000.
